This is an account of results in paper PMC10570711, “Tetramerization of upstream stimulating factor USF2 requires the elongated bent leucine zipper of the bHLH-LZ domain” (The Journal of Biological Chemistry, 2023).

Series [1] deals with the molecule itself. The series can be described thus: SEC-MALS; 700 μM protein mixed with 350 μM E-box DNA, overnight at 4 °C; Superdex 75 Increase; 20 mM Hepes pH 7.5, 100 mM KCl, 10 mM DTT; 0.5 ml/min; the constant is of tetramer to dimers. For orientation: In gel filtration, larger molecules generally elute earlier.
Series [2] deals with the molecule itself. Briefly: dynamic light scattering; USF2_bHLH-LZ-ext-DNA complexes, 400 μM sample; 100 mM KCl, 10 mM Hepes pH 7.5.
Series [3] concerns the molecule itself. Briefly: crystal structure; USF2 235-346 cocrystallised with 18 bp double-stranded E-box DNA; sitting drop, 18 °C, 0.1 M Tris pH 7.0, 20% PEG4000; 3.5 Å; four protein chains in the asymmetric unit.
Series [4] deals with T1, MBP-USF2_WT (human, UniProt Q15853 235-346).
T1 construct: Upstream stimulating factor 2 (USF2), human, isoform 1, residues 235-346 (bHLH-LZ-Ext domain); Built in a pHis-MBP-TEV vector; a TEV site lies between the tag and USF2; also called 6×HisMBP-USF2_WT; source: E. coli Rosetta (DE3), purified (Ni-HiTrap, Superdex 75); not shown: His6, N-terminal, kept; MBP, N-terminal, kept
Briefly: fluorescence polarisation; fluorescence anisotropy; 10 nM 5IAF-labelled USF2_WT, MBP-USF2 proteins titrated 0-6 μM; 20 mM Tris 8.0, 50 mM KCl, 2 mM MgCl2, 0.5% glycerol; 4 °C overnight; apparent; dimer to monomers. The following applies: both partners purified. Background: Fluorescence polarisation rises when a labelled molecule tumbles more slowly, as on binding a larger partner.

Series [5] deals with MBP-USF2_ΔLZ-Ext (Homo sapiens, UniProt Q15853 235-292). The series can be described thus: fluorescence anisotropy; FA: 20 nM FAM-DNA, 20 mM Tris pH 8.0, 50 mM KCl, 2 mM MgCl2, 0.5% glycerol, 4 C, 3 h; EMSA: 100 nM Cy3-DNA, 10 mM Tris pH 8.0, 50 mM KCl, 1 mM DTT, 2 mM MgCl2. As to conditions: protein: recombinant; tags: 6xHis-MBP N-terminal; chain copies: 2; label: 5'-FAM on strand 1; blunt as printed if S3 is read 3'-5' (printed with 5'-3' labels).

Series [6] deals with USF2_Q334K (Homo sapiens, UniProt Q15853 235-346, Q334K). The series can be described thus: fluorescence anisotropy; similar to USF2_WT; FA: 20 nM FAM-DNA, 20 mM Tris pH 8.0, 50 mM KCl, 2 mM MgCl2, 0.5% glycerol, 4 C, 3 h; EMSA: 100 nM Cy3-DNA, 10 mM Tris pH 8.0, 50 mM KCl, 1 mM DTT, 2 mM MgCl2. The following applies: protein: recombinant; chain copies: 2; label: 5'-FAM on strand 1; blunt as printed if S3 is read 3'-5' (printed with 5'-3' labels).

The target of series [7] is T2, MBP-USF2 E244A (Homo sapiens, UniProt Q15853 235-346, E244A).
T2 sequence: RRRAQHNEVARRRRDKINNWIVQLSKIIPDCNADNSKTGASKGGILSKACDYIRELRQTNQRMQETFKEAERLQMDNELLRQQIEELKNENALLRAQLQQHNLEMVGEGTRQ
Briefly: fluorescence anisotropy; FA: 20 nM FAM-DNA, 20 mM Tris pH 8.0, 50 mM KCl, 2 mM MgCl2, 0.5% glycerol, 4 C, 3 h; EMSA: 100 nM Cy3-DNA, 10 mM Tris pH 8.0, 50 mM KCl, 1 mM DTT, 2 mM MgCl2. The following applies: protein: recombinant; tags: 6xHis-MBP N-terminal; chain copies: 2; label: 5'-FAM on strand 1; blunt as printed if S3 is read 3'-5' (printed with 5'-3' labels).

The target in series [8] is T3, MBP-USF2 R247A (Homo sapiens, UniProt Q15853 235-346, R247A).
T3 sequence: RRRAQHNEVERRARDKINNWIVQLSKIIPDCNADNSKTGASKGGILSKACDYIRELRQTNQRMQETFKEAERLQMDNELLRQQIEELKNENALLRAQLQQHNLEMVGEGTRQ
The description is as above. The following applies: protein: recombinant; tags: 6xHis-MBP N-terminal; chain copies: 2; label: 5'-FAM on strand 1; blunt as printed if S3 is read 3'-5' (printed with 5'-3' labels).

Series [9] concerns the target T4, MBP-USF2 R248A (Homo sapiens, UniProt Q15853 235-346, R248A).
T4 sequence: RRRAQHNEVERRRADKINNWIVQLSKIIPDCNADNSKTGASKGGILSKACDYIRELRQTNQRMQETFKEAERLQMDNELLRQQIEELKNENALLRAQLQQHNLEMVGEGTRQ
The description is as above. The following applies: protein: recombinant; tags: 6xHis-MBP N-terminal; chain copies: 2; label: 5'-FAM on strand 1; blunt as printed if S3 is read 3'-5' (printed with 5'-3' labels).

For series [10], the target named is MBP-USF2 H240A (Homo sapiens, UniProt Q15853 235-346, H240A). The description is as above. The following applies: protein: recombinant; tags: 6xHis-MBP N-terminal; chain copies: 2; label: 5'-FAM on strand 1; blunt as printed if S3 is read 3'-5' (printed with 5'-3' labels).
Series [11] has as its target T5, MBP-USF2 E244K (Homo sapiens, UniProt Q15853 235-346, E244K).
T5 sequence: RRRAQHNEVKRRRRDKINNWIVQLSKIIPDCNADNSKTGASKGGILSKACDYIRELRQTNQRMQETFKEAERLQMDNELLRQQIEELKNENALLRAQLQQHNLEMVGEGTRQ
The description is as above. The following applies: protein: recombinant; tags: 6xHis-MBP N-terminal; chain copies: 2; label: 5'-FAM on strand 1; blunt as printed if S3 is read 3'-5' (printed with 5'-3' labels).

Chain of USF2_Q334K (Q15853 235-346 Q334K): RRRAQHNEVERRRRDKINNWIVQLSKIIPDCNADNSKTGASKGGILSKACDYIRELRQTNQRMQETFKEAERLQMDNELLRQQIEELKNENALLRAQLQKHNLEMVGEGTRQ
Chain of MBP-USF2 H240A (Q15853 235-346 H240A): as the sequence (Q15853 235-346 Q334K) above, with H6A, K100Q counted along it

B1: USF2_bHLH-LZ-Ext (human USF2 isoform 1, residues 235-346) (domain or fragment, UniProt Q15853 235-346, looked up)
chain: RRRAQHNEVERRRRDKINNWIVQLSKIIPDCNADNSKTGASKGGILSKACDYIRELRQTNQRMQETFKEAERLQMDNELLRQQIEELKNENALLRAQLQQHNLEMVGEGTRQ
notes: Upstream stimulating factor 2 (USF2), human, isoform 1, residues 235-346 (basic region to the C terminus; bHLH-LZ-Ext); In the crystal, SEC-MALS and DLS experiments the protein was in complex with 18 bp E-box DNA; His-MBP tag removed with TEV protease; also called USF2_WT; bHLH-LZ-Ext domain of USF2; source: E. coli Rosetta (DE3), purified (Ni-HiTrap, Superdex 75; TEV cleavage, HiTrap SP, S75); …
For orientation: stoichiometry N means the number of molecules, sites or subunits per partner or assembly. B1 registered a Kd in series [1] of approximately 800000 nM. Further, the “stoichiometry N” value worked out at 4 in series [2] and 2 in series [3].

B2: USF2_E312R_E320R (bHLH-LZ-Ext domain, residues 235-346, double mutant) (domain or fragment, human, UniProt Q15853 235-346, looked up)
chain: RRRAQHNEVERRRRDKINNWIVQLSKIIPDCNADNSKTGASKGGILSKACDYIRELRQTNQRMQETFKEAERLQMDNRLLRQQIERLKNENALLRAQLQQHNLEMVGEGTRQ
notes: Upstream stimulating factor 2 (USF2), human, isoform 1, residues 235-346 (bHLH-LZ-Ext domain) with E312R and E320R; Generated on the construct MBP-USF2_WT; also called E312R/E320R double mutation; tetramer interface mutant; source: E. coli Rosetta (DE3), purified (Ni-HiTrap, Superdex 75)
Consider B2, for which the “stoichiometry N” value in series [1] is 2.

B3: 5IAF-labelled USF2_WT (5IAFUSF2_WT; labelled CGG-USF2_WT) (domain or fragment, human)
chain: CGGRRRAQHNEVERRRRDKINNWIVQLSKIIPDCNADNSKTGASKGGILSKACDYIRELRQTNQRMQETFKEAERLQMDNELLRQQIEELKNENALLRAQLQQHNLEMVGEGTRQ
modifications: 5-iodoacetamido-fluorescein (5-IAF) on the sulfhydryl cysteine end of CGG-USF2_WT
notes: CGG added before USF2 for labelling with 5-IAF (construct MBP-CGG-USF2_WT); Upstream stimulating factor 2 (USF2), human, isoform 1, residues 235-346 (bHLH-LZ-Ext domain); Made from MBP-CGG-USF2_WT by TEV cleavage of the His-MBP tag; also called 5IAF labeled USF2_WT; source: E. coli Rosetta (DE3), purified (Ni-HiTrap, TEV cleavage, HiTrap SP, S75), labelled with 5-IAF; not shown: His6, N-terminal, …
B3: the Kd in series [4] worked out at 100 ± 19 nM.

B4: FAM E-box DNA (dsDNA)
DNA 1: GACGGGCACGTGACGCGC
DNA 2: GCGCGTCACGTGCCCGTC
As to B4, in [5], the binding signal was more than 20 fold decrease vs USF2_WT. Moreover, in series [6], the binding result is “binds”. The Kd amounted to 72 ± 23 nM in series [7]; 250 ± 67 nM in series [8]; 460 ± 79 nM in [9]; 210 ± 43 nM in series [10]; 290 ± 98 nM in series [11].
